The values that follow come from PMC9250508 (Nature Communications, 2022).

The target in assay [1] is T1, SARS-CoV-2 BA.1 RBD (residues 319–537, C-terminal AviTag and 8xHisTag) (SARS-CoV-2, Omicron BA.1 (B.1.1.529), strain).
T1 construct: also called Omicron lineage RBD
As to the kind of experiment: BLI. The settings on record: both partners purified.

In assay [2] the target is T2, Purified SARS-CoV-2 BA.2 RBD protein (AcroBiosystem) (SARS-CoV-2, Omicron BA.2, strain).
T2 construct: also called Omicron lineage RBD; source: bought: AcroBiosystem
As to the kind of experiment: BLI. The settings on record: both partners purified.

The target of assay [3] is T3, SARS-CoV-2 spike glycoprotein, Omicron BA.1, Δ19 C-terminal truncation, on ExpiCHO-S cells (SARS-CoV-2, Omicron BA.1 (B.1.1.529), strain).
T3 construct: also called BA.1 spike
As to the kind of experiment: flow cytometry on cells. The settings on record: one partner purified.

Assay [4] addresses T4, SARS-CoV-2 spike glycoprotein, Wuhan D614, Δ19 C-terminal truncation, on ExpiCHO-S cells (SARS-CoV-2 BetaCoV/Wuhan-Hu-1/2019 …, UniProt P0DTC2).
T4 construct: also called Wuhan-D614 spike; Wuhan-1 D614
As to the kind of experiment: flow cytometry on cells. As to conditions: one partner purified. In general terms: In flow cytometry, cells or beads pass a laser one at a time.

The target in assay [5] is T5, SARS-CoV-2 spike glycoprotein, Omicron BA.2, Δ19 C-terminal truncation, on ExpiCHO-S cells (SARS-CoV-2, Omicron BA.2, strain).
T5 construct: also called BA.2 spike
As to the kind of experiment: flow cytometry on cells. As to conditions: one partner purified.

B1: AZD8895 Fab (Fab, V domains shown)
VH: QMQLVQSGPEVKKPGTSVKVSCKASGFTFMSSAVQWVRQARGQRLEWIGWIVIGSGNTNYAQKFQERVTITRDMSTSTAYMELSSLRSEDTAVYYCAAPYCSSISCNDGFDIWGQGTMVTVSS
VL: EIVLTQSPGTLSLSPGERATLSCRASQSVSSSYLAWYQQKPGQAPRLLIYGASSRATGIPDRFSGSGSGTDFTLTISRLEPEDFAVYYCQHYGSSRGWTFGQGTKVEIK
notes: also called tixagevimab; COV2-2196
In the case of B1, the binding result in assay [1] and in assay [2] was “binds” in each case.

B2: VIR-7831 (the clinical form of S309-LS) (antibody, V domains shown)
VH: not shown
VL: EIVLTQSPGTLSLSPGERATLSCRASQTVSSTSLAWYQQKPGQAPRLLIYGASSRATGIPDRFSGSGSGTDFTLTISRLEPEDFAVYYCQQHDTSLTFGGGTKVEIK
notes: also called sotrovimab; clinical lead variant of S309-LS; copies: 2 + 2
Take B2: the binding result in assay [3], in assay [4] and in assay [5] was “binds” each time.

B3: AZD1061 Fab (Fab, V domains shown)
VH: EVQLVESGGGLVKPGGSLRLSCAASGFTFRDVWMSWVRQAPGKGLEWVGRIKSKIDGGTTDYAAPVKGRFTISRDDSKNTLYLQMNSLKTEDTAVYYCTTAGSYYYDTVGPGLPEGKFDYWGQGTLVTVSS
VL: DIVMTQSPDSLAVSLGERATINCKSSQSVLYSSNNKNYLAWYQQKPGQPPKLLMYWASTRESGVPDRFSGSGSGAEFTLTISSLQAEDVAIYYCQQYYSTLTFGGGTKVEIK
notes: also called cilgavimab; COV2-2130
For the molecule B3, the binding result in assay [1] and in assay [2] was “binds” each time.
